Here are results for 84 variants from the RNAGym collection of RNA variant scans (doi:10.1021/acssynbio.7b00057).

B1: Pistol ribozyme (parent)
chain: GGGUCGUUGUUCCAUAAUCGCGUGGAUAUGGCACGCAAGUUUCUACCGGGCACCGUAAAUGUCCGACUGGAGCCGUUCGGGCGGCUAUAAACAGACCUCAGGCCCGAAGCGUGGCGGCACCUGCCGCCGGUGGUAAAAAAGAUCGGAAGAGCACACGUCU

The variants in this data set derive from B1. In words: aptazyme ON/OFF ratio, guanine; higher = stronger switching; co-transcriptional cleavage with and without guanine.
In the case of G9A U10G U11A C13G, the “aptazyme ON/OFF ratio” value is 1.04.

G9A U10G U11A C13A: the “aptazyme ON/OFF ratio” value was found to be 1.01.

Take G9A U10G U11A C13U: the “aptazyme ON/OFF ratio” value was found to be 1.05.

Consider G9A U10G U11C C12U C13U, for which the “aptazyme ON/OFF ratio” value was determined as 1.4.

As to G9A U10G U11C C12U C13A, the “aptazyme ON/OFF ratio” value worked out at 1.26.

In the case of G9A U10G U11C C12U C13G, the “aptazyme ON/OFF ratio” value was 1.22.

For G9C U10C U11G C12U, the “aptazyme ON/OFF ratio” value is 1.07.

Consider G9C U10C U11G C12A, for which the “aptazyme ON/OFF ratio” value amounted to 1.03.

As for G9C U10C U11G C12G, the “aptazyme ON/OFF ratio” value is 1.09.

For the variant G9C U10C C12A C13G, the “aptazyme ON/OFF ratio” value worked out at 1.06.

In the case of G9C U10C C12A C13A, the “aptazyme ON/OFF ratio” value worked out at 1.03.

Regarding G9C U10C C12A C13U, the “aptazyme ON/OFF ratio” value was determined as 1.05.

On to G9C C13A, for which the “aptazyme ON/OFF ratio” value is 1.02.

G9C C13U: the “aptazyme ON/OFF ratio” value came out at 1.07.

Turning to G9C C13G, the “aptazyme ON/OFF ratio” value worked out at 1.03.

Turning to G9C U10A U11A C12U, the “aptazyme ON/OFF ratio” value stood at 1.66.

G9C U10A U11A C12A: the “aptazyme ON/OFF ratio” value is 1.52.

As for G9C U10A U11A C12G, the “aptazyme ON/OFF ratio” value was 1.5.

For the variant G9C U10C U11A C12A, the “aptazyme ON/OFF ratio” value is 1.07.

Regarding G9C U10C U11A C12G, the “aptazyme ON/OFF ratio” value stood at 1.14.

For the variant G9C U10C U11A C12U, the “aptazyme ON/OFF ratio” value is 1.13.

G9C U10A C12U C13A: the “aptazyme ON/OFF ratio” value is 1.24.

With G9C U10A C12U C13U, the “aptazyme ON/OFF ratio” value was 1.07.

G9C U10A C12U C13G: the “aptazyme ON/OFF ratio” value is 1.17.

For G9A U11G, the “aptazyme ON/OFF ratio” value is 2.2.

With G9A U11A, the “aptazyme ON/OFF ratio” value is 2.53.

For G9A U11C, the “aptazyme ON/OFF ratio” value was determined as 1.12.

G9C U10A U11G C12A C13G: the “aptazyme ON/OFF ratio” value stood at 1.17.

In the case of G9C U10A U11G C12A C13U, the “aptazyme ON/OFF ratio” value turned out to be 1.17.

With G9C U10A U11G C12A C13A, the “aptazyme ON/OFF ratio” value was 1.06.

With G9C U10C C12A, the “aptazyme ON/OFF ratio” value stood at 1.09.

Take G9C U10C C12G: the “aptazyme ON/OFF ratio” value was 1.06.

Take G9C U10C C12U: the “aptazyme ON/OFF ratio” value came to 1.12.

For the variant G9A U10G C12G C13A, the “aptazyme ON/OFF ratio” value worked out at 1.19.

G9A U10G C12G C13U: the “aptazyme ON/OFF ratio” value was found to be 1.29.

On to G9A U10G C12G C13G, for which the “aptazyme ON/OFF ratio” value was 1.21.

G9A U11G C13G: the “aptazyme ON/OFF ratio” value turned out to be 1.1.

Regarding G9A U11G C13A, the “aptazyme ON/OFF ratio” value stood at 1.37.

Regarding G9A U11G C13U, the “aptazyme ON/OFF ratio” value came out at 1.44.

With G9A U10A U11G C13G, the “aptazyme ON/OFF ratio” value was determined as 1.11.

G9A U10A U11G C13A: the “aptazyme ON/OFF ratio” value was determined as 1.34.

With G9A U10A U11G C13U, the “aptazyme ON/OFF ratio” value amounted to 1.51.

For the variant G9A U11A C12A C13G, the “aptazyme ON/OFF ratio” value came out at 1.29.

Consider G9A U11A C12A C13A, for which the “aptazyme ON/OFF ratio” value was 1.33.

On to G9A U11A C12A C13U, for which the “aptazyme ON/OFF ratio” value is 1.36.

Consider G9A U10G U11C C12A C13A, for which the “aptazyme ON/OFF ratio” value was found to be 1.18.

With G9A U10G U11C C12A C13G, the “aptazyme ON/OFF ratio” value turned out to be 1.15.

Regarding G9A U10G U11C C12A C13U, the “aptazyme ON/OFF ratio” value worked out at 1.25.

In the case of G9A U10G U11G C12A C13G, the “aptazyme ON/OFF ratio” value was determined as 1.13.

Consider G9A U10G U11G C12A C13A, for which the “aptazyme ON/OFF ratio” value came out at 1.19.

Regarding G9A U10G U11G C12A C13U, the “aptazyme ON/OFF ratio” value turned out to be 1.25.

As to G9A U10C U11A C12U, the “aptazyme ON/OFF ratio” value was determined as 1.78.

As to G9A U10C U11A C12G, the “aptazyme ON/OFF ratio” value came to 1.48.

G9A U10C U11A C12A: the “aptazyme ON/OFF ratio” value was found to be 1.67.

Turning to G9A U10A U11G C12G, the “aptazyme ON/OFF ratio” value is 1.16.

For G9A U10A U11G C12U, the “aptazyme ON/OFF ratio” value is 1.42.

G9A U10C U11A C12U C13U: the “aptazyme ON/OFF ratio” value is 1.22.

Take G9A U10C U11A C12U C13G: the “aptazyme ON/OFF ratio” value stood at 1.29.

Turning to G9A U10C U11A C12U C13A, the “aptazyme ON/OFF ratio” value was 1.35.

Take G9C U10A U11G C12U: the “aptazyme ON/OFF ratio” value was determined as 1.37.

On to G9C U10A U11G C12A, for which the “aptazyme ON/OFF ratio” value amounted to 1.06.

Consider G9C U10A U11G C12G, for which the “aptazyme ON/OFF ratio” value amounted to 1.23.

On to G9A U10C C12G, for which the “aptazyme ON/OFF ratio” value was 1.32.

As for G9A U10C C12A, the “aptazyme ON/OFF ratio” value is 1.38.

For the variant G9A U10C C12U, the “aptazyme ON/OFF ratio” value was determined as 1.5.

As for G9C U10C U11C C12G C13U, the “aptazyme ON/OFF ratio” value amounted to 1.04.

Regarding G9C U10C U11C C12G C13A, the “aptazyme ON/OFF ratio” value worked out at 1.08.

G9C U10C U11C C12G C13G: the “aptazyme ON/OFF ratio” value came out at 1.05.

For the variant G9A U11A C13U, the “aptazyme ON/OFF ratio” value was determined as 1.34.

As for G9A U11A C13A, the “aptazyme ON/OFF ratio” value was determined as 1.23.

Take G9A U11A C13G: the “aptazyme ON/OFF ratio” value was found to be 1.1.

With G9C, the “aptazyme ON/OFF ratio” value was found to be 1.06.

As for G9C U10C U11C C12A C13U, the “aptazyme ON/OFF ratio” value was 0.997.

For the variant G9C U10C U11C C12A C13G, the “aptazyme ON/OFF ratio” value stood at 1.01.

As to G9C U10C U11C C12A C13A, the “aptazyme ON/OFF ratio” value was 1.03.

Regarding G9A U10C C12U C13G, the “aptazyme ON/OFF ratio” value was found to be 1.27.

With G9A U10C C12U C13A, the “aptazyme ON/OFF ratio” value was 1.38.

For G9A U10C C12U C13U, the “aptazyme ON/OFF ratio” value turned out to be 1.34.

Consider G9C U10A U11G, for which the “aptazyme ON/OFF ratio” value was 2.06.

With G9C U10A U11A, the “aptazyme ON/OFF ratio” value turned out to be 2.14.

Regarding G9C U10A U11C, the “aptazyme ON/OFF ratio” value turned out to be 1.06.

Consider G9C U10A C12A C13U, for which the “aptazyme ON/OFF ratio” value came out at 1.23.

Take G9C U10A C12A C13G: the “aptazyme ON/OFF ratio” value worked out at 1.16.

As to G9C U10A C12A C13A, the “aptazyme ON/OFF ratio” value was 1.21.
